Assay results: the nanobody polyreactivity screen of Harvey et al. (2022)

Experiment: yeast display, Sf9 membrane polyspecificity reagent, FACS + sequencing; frameworks hold sequencing errors
Summary of the method: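 Genes from sorted yeast were amplified by colony PCR, read by MiSeq 2 × 250 sequencing and filtered on CDR length. These cells carried a synthetic nanobody library in Saccharomyces cerevisiae BJ5465 and were sorted by FACS into low and high (top ~1%) gates on anti-HA and streptavidin fluorescence. Polyreactivity is labelled according to the gate of origin.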

Row | Sequence | polyreactivity (PSR sort gate)
1 | QVQLVESGGGLVQAGGSLRLSCAASGITFVHYAMGWYRQAPGKERELVAAITVGDGGTYYADSVKGRFTISRDNAKNTVYLQMNSLKPEDTAVYYCAAGFYSYSWYVKLAYGYWGQGIQVTVSS | low polyreactivity
2 | QVQLVESGGVLVQAGGIIRLSCAASGFIFVRYAMGWYRQAPGTERELVASIRSVGRTNYADSVKGRFTISRDNAKNTVYLQMNSLKPEDTAVYYCAAGYGSRSRPRGGYWGQGTQVTVSS | high polyreactivity
3 | QVQLVESGGGLVQAGGSLRLSCAASGFTFSFYAMGWYRQAPGKERELVAPISYSGGITYYADSVKGRFTISRENWKNTVYLQMNSLKPEDTAVYYCAAVPYYSKGSSHYNSGNNYCGQGTQVTVSS | low polyreactivity
4 | QVQLVESGGGLVQAGGSLRLSCAASGRTFYNNAMGWYRPAPGKERELVAVISGRGGSTYYADSVKGRFTISRDNAKNTVYLQMNSLKPEDTAVYYCAAGYTRPWRFTYYYWGQGTQVTVSS | high polyreactivity
5 | QVQLVESGGGLVQAGGSLRLSCAASGFTFSAYAMGWSRQAPGKERELVAAITLRGGSTYYADSVKGRFTISRDNAKNTVYLQMNSLKPEDTAVYYCAADRIYVAYDYWGQGTQVTVSS | low polyreactivity
6 | QVQLVESGGGLVQAGGSLRLSCAASGIIFHFNEMGWYRQAPGKERELVAAITSGGSTNYADSVKGRFTISRDNAKNTVYLQMNSLKPEDTAVYYCAARRGLRLFAYRHGYWGQGTQVTVSS | low polyreactivity
7 | QVQLVESGGGLVQAGGSLRLSCAASGRIFYGYAMGWYRQAPGKERELVAAIDWSGGSTYADSVKGRFTISRDNAKNTVYLQMNSLKPEDTAVYYCATDWVTSQQPYYWIYEYWGQGTQVTVSS | low polyreactivity
8 | QVQLVESGGGLVQAGGSLRLSCAASGSIFYYNAMGWYRQAPGKERELVAAISSSGGSTYYADSVKGRFTISRDNAKNTVYLQMNSLKPEDTAVYYCAAKLRHWAHHTKYDYWGQGTQVTVSS | low polyreactivity
9 | QVQLVDSGGGLVQAGGSLRLSCAASGLTFKRYAMGWYRQAPGKERQLVASITGNGGSSYYADSVKGRFTISRDNAKNTVYLQMNSLKPEDTAVYYCNARRYVRTSQQPLYDYWGQGTQVTVSS | high polyreactivity
10 | QVQLVESGGGLVQAGGSLRLSCAASGGMGWYRQAPGKERELVATISSVGSTNYADSVKGRFTISRDNAKNTVYLQMNSLKPEDTAVYYCNANGVQYFLYGYWGQGTQVTVSS | low polyreactivity
11 | QVQLVESGGGLVQAGGSLRLSCAASGFTFAGYGMGWYRQAPGKERELVAAISSSGGSTYYADSVKGRFTISRDNAKNTVYLQMNSLIPEDTAVYYCAAGRPYGDGDYWGQGTQVNVSS | high polyreactivity
12 | QVQLVESGGGLVQAGGSLRLSCAAAGRTFYSYAMGWYRQAPGKEREFVAAINWSGTSTYADSVKGRFTISRDNAKNTVYLQMTSLKPEDTAVYYCAADLPAEYYHWGQGTQVTVSS | high polyreactivity
13 | QVQLVESGGGLVQAGGSLRLSCAASGSTFEYYAMGWYRQAPGKERELVAAISRTGGRTYYADSVKGRFTISRDNAKNTVYLQMNSLKPEDTAVYYCNAVTRIGGGDYDDWGQGTQVTVSS | low polyreactivity
14 | QVQLVESGGGLVQAGGSLSLSCAASARTFYYYAMGWSRQAPGKEREFVASITWRGGRTYYADSVKGRFTISRDNAKNTVYLQMNSLKPEDTAVYYCAADGSYAIGGYGYWGQGTQVTVSS | high polyreactivity
15 | QVQLVESGGGLVQAGGSLRLSCAASGSTFYYNAMGWYRQAPGKERELVARISRAGASTYYAVAVKGRFTISRDNAKNTVYLPMNSLTPEDTAGYYCAARKKKYGYDNWGQATQVTVSS | high polyreactivity
16 | QVQLVESGGGLVQAGVSLRLSCAASGLTFPGYAMGWYRQATGKQRELVAAISRRGGSTYYADSVKGRFTISRDNEKNTVYLKMNSLKTEDTAVYYCNAVIRRYFVPSSYDYWGQGTQVTVSS | high polyreactivity
17 | QVQLVESGGGLVQAGGSLRLSCAASGSIFRGNALGWYRQAPGKERELVATITNGGSTNYADSVKGRFTISRDNAKNTVYLQMNSLKPEDTAVYSCNADHSYHIASTRHVDYWGQGNQVTVSS | low polyreactivity
18 | QVQLVESGGGLVQAGGSLRLSCAASGSTFGDYSMGWYRQAPGKERELVAAISRGGSTYYADSVKGRFTISRDNAKNTVYLQMNSLKPEDTAVYYCNNDVGYSASPDGSTFDYWGQGTQVTVSS | low polyreactivity
19 | QVQLVDSGGGLVQAGGSLRLSCAASGSIFPPYAMGWYRQAPGKERELVARISWSTSSTNYADSVKGRFTISRDNAKNTVYLQMNSLKPEVTAVYYCAADYYVFPGYDYWGQGTQVTVSS | high polyreactivity
20 | QVQLVESGGGLVQAGGSLRLSCAASGFIFGIYDMGWYRQAPGKERELVAAITYSGSSTYYADSVKGRFTISRDNAKNTVYLQMNSLKQEDTAVYYCNKTPWDWDYWDPEYYYWGQGTQVTVSS | high polyreactivity
21 | QVQLVESGGGLVQAGGSLRLSCAASGSTCFHYSMGWYRQAPGKERELVAAITGTGRTTYADSVKGRFTISRDNAKTTVYLQMNSLKPEDTAVYYCAADVNYYQHRLYYWGQGTQVTVSS | low polyreactivity
22 | QLQLVESGGGLVQAGGRLRLSCASSGSTFHSYVMGWYRPAPGKERELVAAITSRGGSTNYADSVKGRFTISRENAKNTVYLHMNSLKPEDTAVYYCAADGYWGWSYFRYDYLGQGTQVTVSS | low polyreactivity

Row | Sequence | polyreactivity (PSR sort gate)
23 | QVQLVESGGGLVQAGGSLRLSCAASGSIFYTNAMGWYRQAPGKERELVAAIRYSGVSTYYADSVKGRFTISRDNAKNTVYLQMNSLKPEDSAVYSCAARGHPFKKSYGSWGQGTQVTVSS | high polyreactivity
24 | QVQLVESVGGLVQAGGSLRLSCAASGITFNRYAMGWYRQAPGKERELVAAITGGGSRTFYADSVKGRFTISGDNAKNTVDLQMNSLKPEDTAVYYCAKGLSTGRAYRGYDYWGQGTQVTVSS | high polyreactivity
25 | QVQLVESGGGLVQAGGSLRLSCAASGIIFQYYAMGWYRQAPGKERELVAAITSSGGSTFYADSVKGRFTISRDNSKNTVYLQMNSLKPEDTAVFYCAGVYHRSTYDYWGQGTQVTVSS | high polyreactivity
26 | QVQLVESGGGLVQAGGSLRLSCAASGRIFGAYAMGWYRPAPGKERELVAAITSRGSTNYADSVKGRFTISRDHAKNTVYLQMNSLNPEDTAVYYCARRAVYSKRRYDYWGQGTQVTVSS | low polyreactivity
27 | QVQLVESGGGLVQAGGSLRLSCAASGRIFDYNVMGWYRQAPGKERELVAGISSGGSTYYADSVKGRFTISRDNAKNTVYLQMNSLKPEDTEVYYCAARGRPYRGYGYWGQGTQVTVSS | high polyreactivity
28 | QVQLVESGGGLVQAGGSLRLSCAASGFTFVKNAMGWYRQAPGNERELVAAISQSGGSTYYADSVKGRFTISRDNAKNTVYLQMNSLKPEDTAVYYCAATYYTYWGYRDYYWGQGTQVTVSS | high polyreactivity
29 | QVQLVESGGGLVQAGGSLRLSCAASGSIFFSNAMGWYRQAPGKERELVAGIRSGGITNYADSVKGRFTISRDNAKNTVYLQMNSLKPEDSAVYYCAKLKDHGRYAYAFDYWGQGTQVTVSS | low polyreactivity
30 | QVQLVESGGGLVQSGGSLRLSCAASGSTFSRYVMGSYRQAPGKERELVAAITNTGSTYYADSVKGRFTISRDNAKNTVYLQMNSLKPEDTAVYYCAATQYRSDGWRYDYWGQGTQVTVSS | high polyreactivity
31 | QVQLVESGGGLDQAGGSLRLSCAASGFIFVRNAMGWYRQAPGKERELVAAITGRGGRTYYADSVKGRFTISRDNAKNTVYLQMNSLKPEDTAVYYCAKDSPDDHFGYWGQGTQVTVSS | high polyreactivity
32 | QVQLVESGGGLVQAGGSLRLSCAASGFTFDFYAMGWYRQAPGKERELVAAISKNDGTTYYADSVKGRFTISRDNAKNTVYLQMNSLKPEDTAVYYCAAESGYPVYTYVSSGDYWGQGTQVTVSS | low polyreactivity
33 | QVQLVESGGGLVQAGGSLRLSCAASGGIFSLYAMGWYRQAPGKERELVAAISRRGTITYYADSVKGRFTISRDNAMNTVYLQMNSLKPEDTAVYYCAALWHAVFYADYDYWGQGTQVTVSS | high polyreactivity
34 | QVQLQESGGGLVQAGGGLRLSCAASGTISGPHVMGWYRQAPGEEREFVAAINVGANTYYADNVKGRFTISRDNAKNTVYLQMNSLKPEDTAVYYCAAVYYGDIGHEYWGQGTQVTVSC | low polyreactivity
35 | QVQLVESGGGLVQAGGSLRLSCAASGRISRYNTLGWSSQAPGKERELVAVISWSGASTYYADSVKGRFTISRDNAKNTVYLQMNSLKPEDTAVYYCAAYYRWYNYDYWGQGTQVTVSS | high polyreactivity
36 | QFQLVESGGGLVQAGGSLRLSCAASGSTFRIYTMGWYRQAPGKHRELVAGISSSGNTNYADSVKGRFTISRDNAKNTVYLQMYSLKPEDTAVYYCAAVQPAWGNGYWGQGTQVTVSS | high polyreactivity
37 | QVQLVESGGGIVQAGGSLRLSCAASGLTICDYAMGWYRQAPGKERELVAAISSSGGRTYYADSVKGRFTISRDNAKNTVYLQMNSLKPEDTAVYYCAAQSKYYQYYSWGQGTQVTVSS | high polyreactivity
38 | QVQLVESGGGLVQAGGSLRLSCAASGFTLGSYVMGWSRQAPGKERELVARITWSGGSTYYADSVKGRFTISRDNAKNTVYLQMNSLKPEDTAVYYCNTGYWARLAYWPFNYKWDDYWGQGTQVTVSS | high polyreactivity
39 | QVQLVESGGGLVQAGGSLRLSCAASGGTFWIYAMGWYRKAPGKERELVAGITTSGATTYYADSVKGRFTISRDNAKNTVYLQMNSLKPEDTAVYYCAADEYYRYEYWGQGTQVTVSS | low polyreactivity
40 | QVQLQESGGGLVQAGGSLRLSCAASGSISSRDAMGWYRQAPGKEREFVATIASGTTTYYADSVKGSFTISRDNAENTVYLQTNSLKPEDTAVYYCAAPTIQIYPFYYWGQGTQVTVSC | high polyreactivity
41 | QVQLVESGGGLVQAGGSLRLSCAASGSIFWGNAMGWYRQAPGKERELVAAIRRGTSTYYADSVKGRFTISRDNAKNTVYLQMNSLKPEDTAVYYCAAEGWTTPTPTSDDNQWWYDYWGQGTQVTVSS | high polyreactivity
42 | QVHLVESGGGLVQAGGSLRLSCAASGGTFYYNTMGWYRQAPGKERELVAAITSGTSTNYADSVKGRFTISRDNAKNTVYLQMNSLIPEDTAGYYCAADPDADDPRRGYDYWGQGTQVTVSS | low polyreactivity
43 | QVQLVESGGGLVQAGGSLRISCAASGFIFDGYAMGWYRQAPGKERELVAAITYSGGSTYYADSLKGRFTISRDNAKNTVYLQMNRLKPEDTAVYYCNAEYSSFSVVQKDSDMDYWGQGTQVTVSS | low polyreactivity
